Test system: Escherichia coli TOP10
Test: shrunken log2 fold change of peptide-encoding DNA abundance (4.5 h post-induction vs induction); higher = less antimicrobial activity (less host growth inhibition)
Conditions: time post-induction: 4.5 h; library: site-saturation at positions 5, 18, 19, 20
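Further: peptides expressed intracellularly from a pBAD plasmid library in pooled LB shake-flask culture, induced with 0.3% L-arabinose, DNA abundance read by NGS, three biological replicates, DESeq2 with apeglm shrinkage.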

| Sequence | shrunken log2 fold change |
| --- | --- |
| RRIRLRPPRLPRPRPRPFETPRP | -0.241 |
| RRIRLRPPRLPRPRPRPFFEPRP | 0.058 |
| RRIRLRPPRLPRPRPRPFFHPRP | -0.37 |
| RRIRLRPPRLPRPRPRPFHCPRP | -0.0953 |
| RRIRLRPPRLPRPRPRPFHDPRP | -0.713 |
| RRIRLRPPRLPRPRPRPFHQPRP | -1 |
| RRIRLRPPRLPRPRPRPFIPPRP | -0.355 |
| RRIRLRPPRLPRPRPRPFIQPRP | -0.418 |
| RRIRLRPPRLPRPRPRPFIVPRP | -0.238 |
| RRIRLRPPRLPRPRPRPFKMPRP | -0.388 |
| RRIRLRPPRLPRPRPRPFKSPRP | -0.209 |
| RRIRLRPPRLPRPRPRPFMDPRP | -0.361 |
| RRIRLRPPRLPRPRPRPFMKPRP | -0.222 |
| RRIRLRPPRLPRPRPRPFMPPRP | -0.195 |
| RRIRLRPPRLPRPRPRPFMVPRP | -0.606 |
| RRIRLRPPRLPRPRPRPFNCPRP | 0.0515 |
| RRIRLRPPRLPRPRPRPFQKPRP | 0.382 |
| RRIRLRPPRLPRPRPRPFQQPRP | 0.0873 |
| RRIRLRPPRLPRPRPRPFQSPRP | 0.0501 |
| RRIRLRPPRLPRPRPRPFRSPRP | -0.0185 |
| RRIRLRPPRLPRPRPRPFSLPRP | -0.127 |
| RRIRLRPPRLPRPRPRPFVYPRP | -0.476 |
| RRIRLRPPRLPRPRPRPGDAPRP | -0.127 |
| RRIRLRPPRLPRPRPRPGDPPRP | 0.251 |
| RRIRLRPPRLPRPRPRPGDVPRP | 0.0737 |

| Sequence | shrunken log2 fold change |
| --- | --- |
| RRIRLRPPRLPRPRPRPGDWPRP | 0.618 |
| RRIRLRPPRLPRPRPRPGEIPRP | -0.141 |
| RRIRLRPPRLPRPRPRPGEQPRP | 0.0657 |
| RRIRLRPPRLPRPRPRPGFPPRP | -0.2 |
| RRIRLRPPRLPRPRPRPGFRPRP | 0.0673 |
| RRIRLRPPRLPRPRPRPGFTPRP | -0.191 |
| RRIRLRPPRLPRPRPRPGHPPRP | 0.0236 |
| RRIRLRPPRLPRPRPRPGKTPRP | 0.086 |
| RRIRLRPPRLPRPRPRPGLCPRP | 0.234 |
| RRIRLRPPRLPRPRPRPGNMPRP | -0.157 |
| RRIRLRPPRLPRPRPRPGNPPRP | 0.0749 |
| RRIRLRPPRLPRPRPRPGPAPRP | 0.972 |
| RRIRLRPPRLPRPRPRPGQWPRP | 0.17 |
| RRIRLRPPRLPRPRPRPGRDPRP | 0.26 |
| RRIRLRPPRLPRPRPRPGRNPRP | -0.0488 |
| RRIRLRPPRLPRPRPRPGRRPRP | 0.363 |
| RRIRLRPPRLPRPRPRPGRWPRP | 0.411 |
| RRIRLRPPRLPRPRPRPGVWPRP | 0.401 |
| RRIRLRPPRLPRPRPRPGWAPRP | 0.691 |
| RRIRLRPPRLPRPRPRPGYSPRP | -0.314 |
| RRIRLRPPRLPRPRPRPGYVPRP | -0.17 |
| RRIRLRPPRLPRPRPRPHAKPRP | -0.0928 |
| RRIRLRPPRLPRPRPRPHCHPRP | -0.727 |
| RRIRLRPPRLPRPRPRPHCMPRP | -0.283 |
| RRIRLRPPRLPRPRPRPHCYPRP | 0.011 |

| Sequence | shrunken log2 fold change |
| --- | --- |
| RRIRLRPPRLPRPRPRPHDYPRP | -0.398 |
| RRIRLRPPRLPRPRPRPHENPRP | 0.0369 |
| RRIRLRPPRLPRPRPRPHFHPRP | -0.0565 |
| RRIRLRPPRLPRPRPRPHFLPRP | -0.499 |
| RRIRLRPPRLPRPRPRPHHHPRP | -0.6 |
| RRIRLRPPRLPRPRPRPHKHPRP | -0.53 |
| RRIRLRPPRLPRPRPRPHKIPRP | -0.0592 |
| RRIRLRPPRLPRPRPRPHKYPRP | -0.559 |
| RRIRLRPPRLPRPRPRPHMRPRP | 0.125 |
| RRIRLRPPRLPRPRPRPHNSPRP | -0.492 |
| RRIRLRPPRLPRPRPRPHNVPRP | 0.0245 |
| RRIRLRPPRLPRPRPRPHNWPRP | -0.0581 |
| RRIRLRPPRLPRPRPRPHPSPRP | -0.0856 |
| RRIRLRPPRLPRPRPRPHSQPRP | -0.0709 |
| RRIRLRPPRLPRPRPRPHSWPRP | 0.0861 |
| RRIRLRPPRLPRPRPRPHTPPRP | -0.295 |
| RRIRLRPPRLPRPRPRPHTQPRP | -0.31 |
| RRIRLRPPRLPRPRPRPHTTPRP | -0.368 |
| RRIRLRPPRLPRPRPRPHTYPRP | -0.257 |
| RRIRLRPPRLPRPRPRPHWLPRP | -0.0104 |
| RRIRLRPPRLPRPRPRPHYTPRP | -0.118 |
| RRIRLRPPRLPRPRPRPIAGPRP | -0.086 |
| RRIRLRPPRLPRPRPRPICGPRP | -0.0025 |
| RRIRLRPPRLPRPRPRPICSPRP | -0.0252 |
| RRIRLRPPRLPRPRPRPICVPRP | 0.151 |
